1 molecule from patent US20210403586A1, “MUTANT OF RANKL AND PHARMACEUTICAL COMPOSITION COMPRISING SAME FOR PREVENTING OR TREATING OSTEOPOROSIS” (INDUSTRY-ACADEMIC COOPERATION FOUNDATION CHOSUN UNIVERSITY, priority 2018, published 2021) can be followed below.

Assay [1] deals with wtRANKL-induced mouse. As to the kind of experiment: mtRANKL immunization in wtRANKL-induced osteoporosis mice, micro-CT. It counts as in vivo. How it is done:
(§1) The right femur of each mouse subjected to each experiment was incised and CT imaging was performed using a Quantum GX pCT imaging system (PerkinElmer, Hopkinton, Mass., USA) located at the Korea Basic Science Institute in Gwangju. As for the X-ray source, the field of view was set to 45 mm, 90 kV and […] (voxel size, 90 μm; scanning time, 14 minutes). CT imaging was performed using a Quantum GX 3D Viewer software. After scanning, image segmentation was performed in Analyze (AnalyzeDirect, Overland Park, Kans., USA). Briefly, the legs were segmented using semi-automatic and manual tools (e.g., object extractor, area expansion, and object separator) using volume editing tools. Then, a 3D rendering of the leg was created, and bone mineral density (BMD), bone volume (BV), bone volume percentage (%), and trabecular thickness were calculated using the ROI tools.
(§2) 17-week-old […] BALB/c mice were equally divided into 3 groups. The group was divided into a negative control group in which PBS was intraperitoneally injected, a group in which only wtRANKL was injected, and a group in which wtRANKL was injected after immunization with mtRANKL for 52 days. mtRANKL was injected after mixing with an aluminum hydroxide adjuvant. The immunization process started with 1st immunization of mtRANKL at 52 days, 2nd immunization at 39 days, 3rd immunization at 14 days each before injection of wtRANKL, and a total of 3 immunizations was performed. The amount of mtRANKL was 0.2 mg per mouse.
(§3) After 52 days, PBS was injected into the negative control group and wtRANKL was injected into the other two groups. Next day, wtRANKL was injected once more. wtRANK was subcutaneously injected (2.0 mg/kg). Serum was collected to determine the titer of anti-RANKL antibody. Then, after extracting tibias, the adhesive soft tissues of tibias were removed.
To examine whether RANKL has a bone destruction effect when RANKL was injected after immunization with mtRANKL, micro-CT analysis was performed by the method of Reference Example 6.

The test system of assay [2] is ovariectomized (OVX) mice. As to the kind of experiment: mtRANKL immunization in ovariectomized (OVX) mice, micro-CT. It counts as in vivo, mouse. To be noted: mice ovariectomized after immunization with mtRANKL vs OVX mice. How it is done: as §1, with “The right femur of each mouse subjected to each experiment was incised and CT imaging was performed using a Quantum GX pCT imaging system (PerkinElmer, Hopkinton, Mass., USA) located at the Korea Basic Science Institute in Gwangju.” left out
17-week-old […] BALB/c mice were equally divided into a group that was given OVX after immunization with mtRANKL, a group that was given only OVX, and a non-treated negative control group.
The mtRANKL-immunized group was immunized with mtRANKL a total of three times: started with 1st immunization at 52 days, 2nd immunization at 39 days, 3rd immunization at 14 days each before OVX. mtRANKL used in the immunization was injected after mixing with an aluminum hydroxide adjuvant. The amount of mtRANKL was 0.2 mg per mouse.
52 days after 1st immunization, OVX was performed. On day 70 after OVX, serum were collected and tibias were extracted, and then the adhesive soft tissues of tibias were removed. […]

The test system of assay [3] is isolated spleen cells. Kind of assay: Th1/Th2 cytokine secretion of isolated spleen cells. The note with it: culture supernatant of Sham and IM splenocytes stimulated with sRANKL or mRANKL-MT3. It is filed as cell-based, mouse. The source says:
To determine whether mRANKL-MT3 immunization influences Th1 and Th2 cytokine production, we evaluated the effects of mRANKL-MT3 on IL-4 and IL-10 secretion, which are markers for Th2 responses, and IFN-γ, a marker for Th1 responses, in the culture supernatant of isolated spleen cells stimulated with sRANKL or mRANKL-MT3 (FIG. 8C).

In assay [4] the test system is BMMs. Kind of assay: Real-time PCR of osteoclastogenesis mRNA in RANKL-induced BMMs. To be noted: mRANKL-MT3-induced BMMs compared with mRANKL-WT induced BMMs. It counts as cell-based, mouse. The procedure: Meanwhile, for Real-time PCR, BMM cells were incubated with 30 ng/mL M-CSF and 75 ng/mL sRANKL (R&D Systems) or isolated RANKL in 6-well plates. Total RNA was extracted using TRIzol reagent (Invitrogen, Thermo Fisher Scientific, Inc.). The cDNA was synthesized from 2 μg total RNA using ReverTra Ace qPCR RT Master Mix (TOYOBO, Osaka, Japan). Real-time PCR was conducted on a CFX Connect RealTime PCR Detection System (Bio-Rad, Hercules, Calif., USA) in a reaction mixture (total volume, 20 μL) containing IQ SYBR Green Supermix (Bio-Rad), 10 pmol forward primer, 10 pmol reverse primer, and 1 μg cDNA.

The subject of assay [5] is RANKL. As to the kind of experiment: ELISA of serum RANKL levels. It is filed as in vivo, mouse. The note with it: wtRANKL 2.0 mg/kg s.c. to non-immunized mice, or to mice immunized with mtRANKL. The procedure: A commercially available enzyme immunoassay kit (R & D Systems, Minn., USA) was used to measure RANKL levels in the serum of mice according to the manufacturer's protocol. Absorbance (450 nm) was measured in a colorimetric microplate reader (BioTek, Winooski, USA). The reading of the absorbance was then subtracted from the reading at 570 nm.
as §2, §3

The subject of assay [6] is bone marrow-derived monocytes (BMMs). Kind of assay: Inhibition of wild type RANKL-induced TRAP activity by mutant RANKL in BMMs. The note with it: BMMs treated with mutant and wild type RANKL; even at a 3:1 wild type:mutant ratio. It counts as cell-based, mouse. How it is done:
To investigate the optimized inhibitory effect against wild type RANKL, bone marrow-derived monocytes (BMMs) were treated with purified mutant and wild type RANKL (FIG. 2E, F). […] Therefore, we used mRANKL-MT3 for subsequent experiments.
4-week old male BALB/c mice were purchased from Orient Bio (Gwangju, Korea) and kept in an animal facility approved by the Chosun University Animal Management Committee (IACUC2017-A0002). After obtaining bone marrow cells from mice, bone marrow mononuclear cells were seeded into 96-well plates (1 Y 10^4 cells/well), and in the absence or presence of various concentrations of compounds, incubated with M-CSF (100 ng/mL) overnight before stimulation with RANKL (50 ng/well). The medium was replaced every other days. 6 days later, the cells were fixed with 4% paraformaldehyde, permeated in 0.1% Triton X-100, and washed with PBS. Then, TRAP activity (Sigma-Aldrich, St. Louis, Mo., USA) staining was performed. TRAP-positive multinuclear cells containing 5 or more nuclei were counted as osteoclasts.

[7] abbreviates: wtRANKL-injected mice vs mtRANKL-immunized mice with wtRANKL injection.

B1: mRANKL-MT3: mouse RANKL mutant: K180R, D189I, R190K, H223F, H224Y; nucleic acid SEQ ID NO: 3 (protein, UniProt O35235 158-316, looked up, variant K180R D189I R190K H223F H224Y)
chain: KPEAQPFAHLTINAASIPSGSHRVTLSSWYHIKGWAKISNMTLSNGKLRVNQDGFYYLYANICFRFYETSGSVPTDYLQLMVYVVKTSIKIPSSHNLMKGGSTKNWSGNSEFHFYSINVGGFFKLRAGEEISIQVSNPSLLDPDQDATYFGAFKVQDID
In the case of B1, in assay [1] (compared with PBS-treated mice), the “bone volume and percentage of bone volume” value is on record as “maintained at similar levels”. In assay [1] (setting [7]), the BMD of tibias turned out to be 795.8 ± 11.9 mg/mL; the “trabecular bone architecture of proximal tibias (micro-CT)” value is “thicker fibers and higher density than the wtRANKL-injected mice”. Moreover, the BMD of tibias entry in assay [2] is listed as “significantly higher”. In addition, the “trabecular bones of proximal tibias (micro-CT)” value in assay [2] (day 70 after OVX) was “thicker fibers and higher density than those of OVX mice”. Also, in assay [3], the IFN-γ levels entry was “no significant differences”; the “IL-4 and IL-10 secretion” value was “significantly increased”. In addition, in assay [4], the “TRAP, NFATc1, and OSCAR mRNA expression” value is listed as “down-regulated”. Also, the “level of RANKL in the blood (ELISA)” value in assay [5] was “eliminated”. The “inhibitory effect against wild type RANKL (TRAP activity)” value in assay [6] was “the most effective at inhibiting TRAP activity”.
